Data as given in the supplement of paper PMC6757056.
± gives the standard deviation of the averaged measurements.

B1: library; a variant is named by its letters at N, in order (parent)
chain: GCUGUCACCGAGAAACUGUGAAGUAUAUCUUAAACCUGGGCACUUAAAAGAUAUAUGGAGUUAGUAGUGCAACCUGCUCGGUCUGAUGAGUCCNNNNNNGGACGAAACAGC

Assays:
cyclic di-GMP [1] = variants of: B1; experiment: normalized RNA/DNA level without ligand (relative to sTRSVctl = 100) (log10 (% of sTRSVctl)); HEK293T; ligand: cyclic di-GMP (c-di-GMP-II aptamer); higher = less ribozyme self-cleavage, higher mRNA level; conditions: reporter: mCherry (pCS4076), ligand present: no
In short: (§1)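 Library plasmids encoding reporter-linked ribozyme switches (mCherry, or eGFP for some folinic acid experiments) were transfected into HEK293T at 4 µg per 6-well well. Ligand, when used, was added 1 h before transfection. Total RNA was extracted with EDTA 72 h later, then reverse-transcribed, amplified, barcoded and sequenced. RNA level was RNA reads over DNA reads, divided by a spiked-in non-cleaving control (or the top 25 sequences), ×100, log10; only sequences with ≥100 DNA reads were kept.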

cyclic di-GMP [2] = variants of: B1; experiment: normalized RNA/DNA level with ligand (relative to sTRSVctl = 100) (log10 (% of sTRSVctl)); HEK293T; ligand: cyclic di-GMP (c-di-GMP-II aptamer); ligand concentration (+) RNA-Seq: 1 mM; higher = less ribozyme self-cleavage, higher mRNA level; conditions: reporter: mCherry (pCS4076), ligand present: yes
In short: as §1

| Variant | normalized RNA/DNA level without ligand (log10) (cyclic di-GMP [1]) | normalized RNA/DNA level with ligand (log10) (cyclic di-GMP [2]) |
| --- | --- | --- |
| GCUGUCACCGAGAAACUGUGAAGUAUAUCUUAAACCUGGGCACUUAAAAGAUAUAUGGAGUUAGUAGUGCAACCUGCUCGGUCUGAUGAGUCCUUUGCGGGACGAAACAGC | 1.78 ± 0.066 | 1.88 ± 0.12 |
| GCUGUCACCGAGAAACUGUGAAGUAUAUCUUAAACCUGGGCACUUAAAAGAUAUAUGGAGUUAGUAGUGCAACCUGCUCGGUCUGAUGAGUCCUUUGCUGGACGAAACAGC | 1.76 ± 0.057 | 1.88 ± 0.14 |
| GCUGUCACCGAGAAACUGUGAAGUAUAUCUUAAACCUGGGCACUUAAAAGAUAUAUGGAGUUAGUAGUGCAACCUGCUCGGUCUGAUGAGUCCCUUGCUGGACGAAACAGC | 1.76 ± 0.021 | 1.86 ± 0.12 |
| GCUGUCACCGAGAAACUGUGAAGUAUAUCUUAAACCUGGGCACUUAAAAGAUAUAUGGAGUUAGUAGUGCAACCUGCUCGGUCUGAUGAGUCCCUUGCGGGACGAAACAGC | 1.78 ± 0.02 | 1.86 ± 0.12 |
| GCUGUCACCGAGAAACUGUGAAGUAUAUCUUAAACCUGGGCACUUAAAAGAUAUAUGGAGUUAGUAGUGCAACCUGCUCGGUCUGAUGAGUCCGUUGGGGGACGAAACAGC | 1.6 ± 0.1 | 1.76 ± 0.065 |
| GCUGUCACCGAGAAACUGUGAAGUAUAUCUUAAACCUGGGCACUUAAAAGAUAUAUGGAGUUAGUAGUGCAACCUGCUCGGUCUGAUGAGUCCGUUGGUGGACGAAACAGC | 1.611 ± 0.011 | 1.77 ± 0.1 |
| GCUGUCACCGAGAAACUGUGAAGUAUAUCUUAAACCUGGGCACUUAAAAGAUAUAUGGAGUUAGUAGUGCAACCUGCUCGGUCUGAUGAGUCCGUUGGAGGACGAAACAGC | 1.56 ± 0.097 | 1.72 ± 0.077 |
| GCUGUCACCGAGAAACUGUGAAGUAUAUCUUAAACCUGGGCACUUAAAAGAUAUAUGGAGUUAGUAGUGCAACCUGCUCGGUCUGAUGAGUCCGUUGGCGGACGAAACAGC | 1.61 ± 0.022 | 1.79 ± 0.09 |
| GCUGUCACCGAGAAACUGUGAAGUAUAUCUUAAACCUGGGCACUUAAAAGAUAUAUGGAGUUAGUAGUGCAACCUGCUCGGUCUGAUGAGUCCUUUGUCGGACGAAACAGC | 1.795 ± 0.011 | 1.9 ± 0.11 |
| GCUGUCACCGAGAAACUGUGAAGUAUAUCUUAAACCUGGGCACUUAAAAGAUAUAUGGAGUUAGUAGUGCAACCUGCUCGGUCUGAUGAGUCCGUUGCUGGACGAAACAGC | 1.7 ± 0.039 | 1.84 ± 0.1 |
| GCUGUCACCGAGAAACUGUGAAGUAUAUCUUAAACCUGGGCACUUAAAAGAUAUAUGGAGUUAGUAGUGCAACCUGCUCGGUCUGAUGAGUCCCUUGGCGGACGAAACAGC | 1.79 ± 0.034 | 1.92 ± 0.085 |
| GCUGUCACCGAGAAACUGUGAAGUAUAUCUUAAACCUGGGCACUUAAAAGAUAUAUGGAGUUAGUAGUGCAACCUGCUCGGUCUGAUGAGUCCCUUGGUGGACGAAACAGC | 1.76 ± 0.031 | 1.84 ± 0.11 |
| GCUGUCACCGAGAAACUGUGAAGUAUAUCUUAAACCUGGGCACUUAAAAGAUAUAUGGAGUUAGUAGUGCAACCUGCUCGGUCUGAUGAGUCCCUUGGGGGACGAAACAGC | 1.74 ± 0.031 | 1.88 ± 0.13 |
| GCUGUCACCGAGAAACUGUGAAGUAUAUCUUAAACCUGGGCACUUAAAAGAUAUAUGGAGUUAGUAGUGCAACCUGCUCGGUCUGAUGAGUCCCUUGUAGGACGAAACAGC | 1.57 ± 0.044 | 1.77 ± 0.12 |
| GCUGUCACCGAGAAACUGUGAAGUAUAUCUUAAACCUGGGCACUUAAAAGAUAUAUGGAGUUAGUAGUGCAACCUGCUCGGUCUGAUGAGUCCCUUGUCGGACGAAACAGC | 1.78 ± 0.048 | 1.89 ± 0.12 |
| GCUGUCACCGAGAAACUGUGAAGUAUAUCUUAAACCUGGGCACUUAAAAGAUAUAUGGAGUUAGUAGUGCAACCUGCUCGGUCUGAUGAGUCCAUUGUCGGACGAAACAGC | 1.73 ± 0.053 | 1.85 ± 0.15 |
| GCUGUCACCGAGAAACUGUGAAGUAUAUCUUAAACCUGGGCACUUAAAAGAUAUAUGGAGUUAGUAGUGCAACCUGCUCGGUCUGAUGAGUCCAUUGCGGGACGAAACAGC | 1.713 ± 0.012 | 1.83 ± 0.09 |
| GCUGUCACCGAGAAACUGUGAAGUAUAUCUUAAACCUGGGCACUUAAAAGAUAUAUGGAGUUAGUAGUGCAACCUGCUCGGUCUGAUGAGUCCAUUGCUGGACGAAACAGC | 1.73 ± 0.047 | 1.88 ± 0.081 |
| GCUGUCACCGAGAAACUGUGAAGUAUAUCUUAAACCUGGGCACUUAAAAGAUAUAUGGAGUUAGUAGUGCAACCUGCUCGGUCUGAUGAGUCCGUUGUCGGACGAAACAGC | 1.53 ± 0.11 | 1.73 ± 0.087 |
| GCUGUCACCGAGAAACUGUGAAGUAUAUCUUAAACCUGGGCACUUAAAAGAUAUAUGGAGUUAGUAGUGCAACCUGCUCGGUCUGAUGAGUCCGUUGUAGGACGAAACAGC | 1.57 ± 0.024 | 1.77 ± 0.1 |
| GCUGUCACCGAGAAACUGUGAAGUAUAUCUUAAACCUGGGCACUUAAAAGAUAUAUGGAGUUAGUAGUGCAACCUGCUCGGUCUGAUGAGUCCAUUGGGGGACGAAACAGC | 1.54 ± 0.16 | 1.75 ± 0.078 |
| GCUGUCACCGAGAAACUGUGAAGUAUAUCUUAAACCUGGGCACUUAAAAGAUAUAUGGAGUUAGUAGUGCAACCUGCUCGGUCUGAUGAGUCCAUUGGCGGACGAAACAGC | 1.67 ± 0.017 | 1.83 ± 0.076 |
| GCUGUCACCGAGAAACUGUGAAGUAUAUCUUAAACCUGGGCACUUAAAAGAUAUAUGGAGUUAGUAGUGCAACCUGCUCGGUCUGAUGAGUCCUUUGGUGGACGAAACAGC | 1.73 ± 0.043 | 1.88 ± 0.066 |
| GCUGUCACCGAGAAACUGUGAAGUAUAUCUUAAACCUGGGCACUUAAAAGAUAUAUGGAGUUAGUAGUGCAACCUGCUCGGUCUGAUGAGUCCUUUGGAGGACGAAACAGC | 1.65 ± 0.051 | 1.79 ± 0.085 |
| GCUGUCACCGAGAAACUGUGAAGUAUAUCUUAAACCUGGGCACUUAAAAGAUAUAUGGAGUUAGUAGUGCAACCUGCUCGGUCUGAUGAGUCCUUUGGCGGACGAAACAGC | 1.79 ± 0.033 | 1.9 ± 0.16 |
| GCUGUCACCGAGAAACUGUGAAGUAUAUCUUAAACCUGGGCACUUAAAAGAUAUAUGGAGUUAGUAGUGCAACCUGCUCGGUCUGAUGAGUCCUUUGGGGGACGAAACAGC | 1.735 ± 0.0076 | 1.85 ± 0.074 |
